Experimental data: patent US20240409629A1 (CHIA TAI TIANQING PHARMACEUTICAL GROUP, published 2024)
Read-outs that look alike come from different tables or passages of the source.

Tests used:
human CLDN18.2 [1] = molecular target: T1, human CLDN18.2 (human); test: FACS, KATOIII cells (natural CLDN18.2)
T1 construct: also called claudin18.2
Description: (§1) Based on the FACS method, the binding activity of anti-CLDN18.2 humanized antibodies for the cell lines KATOIII (Cell Bank of the Chinese Academy of Sciences) and NUGC-4 (Cell Bank of the Chinese Academy of Sciences) naturally expressing CLDN18.2 was analyzed. […] See Example 3 for the specific method.

human CLDN18.2 [2] = molecular target: T1, human CLDN18.2; test: FACS, NUGC-4 cells (natural CLDN18.2)
Description: as §1

human CLDN18.2 [3] = molecular target: T1, human CLDN18.2; test: cell-based or functional assay
human CLDN18.2 [4] = molecular target: T1, human CLDN18.2; test: cell-based or functional assay; remark: listed apart in the source
human CLDN18.2 [5] = molecular target: T1, human CLDN18.2; test: cell-based or functional assay; remark: listed apart in the source
human CLDN18.2 [6] = molecular target: T1, human CLDN18.2; test: cell-based or functional assay; remark: listed apart in the source
human CLDN18.2 [7] = molecular target: T1, human CLDN18.2; test: FACS, NUGC-4 cells (natural CLDN18.2); remark: listed apart in the source
Description: as §1

human CLDN18.2 [8] = molecular target: T1, human CLDN18.2; test: cell-based or functional assay; remark: listed apart in the source
human CLDN18.2 [9] = molecular target: T1, human CLDN18.2; test: FACS, KATOIII cells (natural CLDN18.2); remark: listed apart in the source
Description: as §1

Binder | EC50 (human CLDN18.2 [1]) [nM] | EC50 (human CLDN18.2 [2]) [nM] | CDC EC50, NIH-3T3-CLDN18.2 target cells (human CLDN18.2 [3]) [nM] | ADCC EC50, Jurkat-CD16a v158-NFAT-luciferase effector cells, NIH-3T3-CLDN18.2 target cells (human CLDN18.2 [4]) [nM] | ADCC EC50, Jurkat-CD16a v158-NFAT-luciferase effector cells, NUGC-4 target cells (human CLDN18.2 [4]) [nM] | CDC EC50, NIH-3T3-CLDN18.2 target cells (human CLDN18.2 [5]) [nM] | ADCC EC50, PBMC effector cells, KATOIII target cells (human CLDN18.2 [6]) [nM] | ADCC EC50, PBMC effector cells, NIH-3T3-CLDN18.2 target cells (human CLDN18.2 [6]) [nM] | ADCC EC50, PBMC effector cells, NUGC-4 target cells (human CLDN18.2 [6]) [nM] | EC50 (human CLDN18.2 [7]) [nM] | ADCC EC50, Jurkat-CD16a v158-NFAT-luciferase effector cells, KATOIII target cells (human CLDN18.2 [8]) [nM] | ADCC EC50, Jurkat-CD16a v158-NFAT-luciferase effector cells, U2OS-CLDN18.2 target cells (human CLDN18.2 [8]) [nM] | EC50 (human CLDN18.2 [9]) [nM] | ADCC Maximum killing (%), PBMC effector cells, KATOIII target cells (human CLDN18.2 [6]) [%] | ADCC Maximum killing (%), PBMC effector cells, NIH-3T3-CLDN18.2 target cells (human CLDN18.2 [6]) [%] | ADCC Maximum killing (%), PBMC effector cells, NUGC-4 target cells (human CLDN18.2 [6]) [%]
humanized antibody hz40F6-2.2 (antibody, human IgG1, kappa, V domains shown) VH: QVQLVESGGGVVQPGRSLRLSCAASGFTLTSYGVYWVRQAPGKGLEWVAVVWAGGNTNYNSALMSRFTISKDNSKSTLYLQMNSLRAEDTAVYYCARDRGRLLAMDYWGQGTLVTVSS VL: DIVMTQSPDSLAVSLGERATINCKSSQSLLNSGNQKNYLAWYQQKPGQPPKLLIYGASTRESGVPDRFSGSGSGTDFTLTISSLQAEDVAVYYCQNDYFFPFTFGQGTKVEIKR | 7.54 | 14.9 | 0.53 | 0.01 | 0.019 |  |  |  |  |  |  |  |  |  |  | 
humanized antibody hz40F6-1.1 (antibody, human IgG1, kappa, V domains shown) VH: QVQLVESGGGVVQPGRSLRLSCAASGFTLTSYGVYWVRQAPGKGLEWVAVVWAGGNTNYADSVKGRFTISKDNSKSTLYLQMNSLRAEDTAVYYCARDRGRLLAMDYWGQGTLVTVSS VL: DIVMTQSPDSLAVSLGERATINCKSSQSLLNSGNQKNYLAWYQQKPGQPPKLLIYGASTRESGVPDRFTGSGSGTDFTLTISSLQAEDVAVYYCQNDHFFPFTFGQGTKVEIKR | 8.24 | 20 | 1.47 | 0.013 | 0.045 |  |  |  |  |  |  |  |  |  |  | 
humanized antibody hz40F6-2.4 (antibody, human IgG1, kappa, V domains shown) VH: QVQLVESGGGVVQPGRSLRLSCTVSGFTLTSYGVYWVRQAPGKGLEWVAVVWAGGNTNYNSALKGRFTISKDNSKSTLYLQMNSLRAEDTAVYYCARDRGRLLAMDYWGQGTLVTVSS VL: DIVMTQSPDSLAVSLGERATINCKSSQSLLNSGNQKNYLAWYQQKPGQPPKLLIYGASTRESGVPDRFSGSGSGTDFTLTISSLQAEDVAVYYCQNDYFFPFTFGQGTKVEIKR | 6.38 | 13.3 | 0.89 | 0.014 | 0.03 |  |  |  |  |  |  |  |  |  |  | 

More lines, main results first:

EC50 (human CLDN18.2 [1]) [nM] | EC50 (human CLDN18.2 [2]) [nM] | CDC EC50, NIH-3T3-CLDN18.2 target cells (human CLDN18.2 [3]) [nM] | ADCC EC50, Jurkat-CD16a v158-NFAT-luciferase effector cells, NIH-3T3-CLDN18.2 target cells (human CLDN18.2 [4]) [nM] | ADCC EC50, Jurkat-CD16a v158-NFAT-luciferase effector cells, NUGC-4 target cells (human CLDN18.2 [4]) [nM] | CDC EC50, NIH-3T3-CLDN18.2 target cells (human CLDN18.2 [5]) [nM] | ADCC EC50, PBMC effector cells, KATOIII target cells (human CLDN18.2 [6]) [nM] | ADCC EC50, PBMC effector cells, NIH-3T3-CLDN18.2 target cells (human CLDN18.2 [6]) [nM] | ADCC EC50, PBMC effector cells, NUGC-4 target cells (human CLDN18.2 [6]) [nM] | EC50 (human CLDN18.2 [7]) [nM] | ADCC EC50, Jurkat-CD16a v158-NFAT-luciferase effector cells, KATOIII target cells (human CLDN18.2 [8]) [nM] | ADCC EC50, Jurkat-CD16a v158-NFAT-luciferase effector cells, U2OS-CLDN18.2 target cells (human CLDN18.2 [8]) [nM] | EC50 (human CLDN18.2 [9]) [nM] | Binder | ADCC Maximum killing (%), PBMC effector cells, KATOIII target cells (human CLDN18.2 [6]) [%] | ADCC Maximum killing (%), PBMC effector cells, NIH-3T3-CLDN18.2 target cells (human CLDN18.2 [6]) [%] | ADCC Maximum killing (%), PBMC effector cells, NUGC-4 target cells (human CLDN18.2 [6]) [%]
 |  |  |  |  | 0.31 | 1.03 | 0.51 | 4.6 | 10.5 | 0.217 | 0.023 | 7.01 | humanized antibody hz28G3-1.3 (antibody, human IgG1, kappa, V domains shown) VH: QVQLVQSGAEVKKPGASVKVSCKTSGYSFTDYLMLWVRQAHGQSLEWMGNINPYYGRTTYALKFKGRVTMTVDRSTSTVYMELSSLRSEDTAVYYCARDGYSLRNAMDYWGQGTLVTVSS VL: DIVMTQSPDSLAVSLGERATINCKSSQSLFNSGNQKNYLAWYQQKPGQPPKLLIYGASTRESGVPDRFSGSGSGTDFTLTISSLQAEDVAVYYCQNAHSYPYTFGQGTKVEIKR | 25.3 | 44.3 | 19
6.44 | 10.6 | 0.55 | 0.024 | 0.017 |  | 0.1 | 0.31 | 0.12 |  |  |  |  | humanized antibody hz40F6-1.4 (antibody, human IgG1, kappa, V domains shown) VH: QVQLVESGGGVVQPGRSLRLSCTVSGFTLTSYGVYWVRQAPGKGLEWVAVVWAGGNTNYNSALKGRFTISKDNSKSTLYLQMNSLRAEDTAVYYCARDRGRLLAMDYWGQGTLVTVSS VL: DIVMTQSPDSLAVSLGERATINCKSSQSLLNSGNQKNYLAWYQQKPGQPPKLLIYGASTRESGVPDRFTGSGSGTDFTLTISSLQAEDVAVYYCQNDHFFPFTFGQGTKVEIKR | 13.3 | 24.6 | 2.83
6.13 | 16.2 | 0.9 | 0.014 | 0.028 |  |  |  |  |  |  |  |  | humanized antibody hz40F6-2.3 (antibody, human IgG1, kappa, V domains shown) VH: QVQLVESGGGVVQPGRSLRLSCAASGFTLTSYGVYWVRQAPGKGLEWVAVVWAGGNTNYADALKGRFTISKDNSKSTLYLQMNSLRAEDTAVYYCARDRGRLLAMDYWGQGTLVTVSS VL: DIVMTQSPDSLAVSLGERATINCKSSQSLLNSGNQKNYLAWYQQKPGQPPKLLIYGASTRESGVPDRFSGSGSGTDFTLTISSLQAEDVAVYYCQNDYFFPFTFGQGTKVEIKR |  |  | 
